Experimental findings from publication PMC5052520, “The Important Role of Halogen Bond in Substrate Selectivity of Enzymatic Catalysis” (Scientific Reports, 2016) are described below.

Common to all, as to assay: hydrolysis kinetics, product by liquid chromatography
Type in all cases: biochemical, Synechocystis sp. PCC 6803

One data set relates to N#CCc1cccc(Cl)c1. From the text:
(§1) hydrolysis kinetics, product by liquid chromatography on nitrilase (WT)

Another data set relates to N#CCc1ccccc1Cl.
Text: as §1

The next data set concerns N#CCc1ccc(Cl)cc1.
Text: as §1

As usually defined, the Km is the concentration of substrate that gives half-maximal velocity. A word on the kcat: it is the maximal rate divided by the concentration of active sites. The kcat/Km is the second-order rate constant that governs catalysis at low substrate concentration.

With “nitrilase (WT) (Synechocystis sp. PCC 6803 substr. Kazusa)”, in the data set with N#CCc1cccc(Cl)c1, the Km stood at 460 ± 40 µM, the kcat came to 0.27 ± 0.02 s⁻¹ and the kcat/Km came out at 590 M⁻¹ s⁻¹.

For “nitrilase (WT) (Synechocystis sp. PCC 6803 substr. Kazusa; H141W)”, in the data set with N#CCc1ccccc1Cl, the Km was found to be 650 ± 180 µM, the kcat was 0.21 ± 0.05 s⁻¹ and the kcat/Km was found to be 330 M⁻¹ s⁻¹.

Regarding “nitrilase (WT) (Synechocystis sp. PCC 6803 substr. Kazusa; T54Y)”, in the data set on N#CCc1cccc(Cl)c1, the Km is 9600 ± 270 µM, the kcat turned out to be 0.08 ± 0.13 s⁻¹ and the kcat/Km came to 10 M⁻¹ s⁻¹. In the data set with N#CCc1ccc(Cl)cc1, the Km amounted to 710 ± 30 µM, the kcat is 0.56 ± 0.07 s⁻¹ and the kcat/Km was found to be 560 M⁻¹ s⁻¹.
